According to patent US20040248232:

Experiments:
[1] = test system: APP substrate Ser-Glu-Val-Lys-Met-Asp-Ala-Glu-Phe
[2] = test system: Z★Val-Lys-Met-MCA substrate

Sequence of Peak I β-secretase endoprotease activity from bovine chromaffin vesicles, identified as bovine cathepsin L (27 kDa cysteine protease band) (chain, as listed by the source): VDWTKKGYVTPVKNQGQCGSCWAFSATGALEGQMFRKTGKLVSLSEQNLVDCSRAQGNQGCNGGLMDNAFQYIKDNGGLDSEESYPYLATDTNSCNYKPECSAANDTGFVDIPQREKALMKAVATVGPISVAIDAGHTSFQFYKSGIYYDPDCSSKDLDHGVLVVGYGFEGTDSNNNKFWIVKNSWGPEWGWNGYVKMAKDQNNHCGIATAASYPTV

Row | Substance | cleavage of the APP substrate, products analyzed by EMS [1] | fluorescent MCA released by cleavage of the substrate [2] | cleavage of the Z★Val-Lys-Met-MCA substrate, products analyzed by EMS [2]
1 | Peak II-A β-secretase endoprotease activity from bovine chromaffin vesicles, identified as bovine cathepsin B (31 kDa cysteine protease band) | the majority of the Peaks II-A and II-B activities cleaved the Met-Asp bond | the majority of the endoprotease activity in Peak II-A and Peak II-B cleaved the β-secretase scissile bond | 
2 | Peak II-B β-secretase endoprotease activity from bovine chromaffin vesicles, identified as bovine cathepsin B (31 kDa cysteine protease band) | the majority of the Peaks II-A and II-B activities cleaved the Met-Asp bond | the majority of the endoprotease activity in Peak II-A and Peak II-B cleaved the β-secretase scissile bond | 
3 | Peak I β-secretase endoprotease activity from bovine chromaffin vesicles, identified as bovine cathepsin L (27 kDa cysteine protease band) | the majority of Peak I activity cleaved the Lys-Met bond |  | the Peak I activity cleaved the Lys-Met bond in the Z★Val-Lys-Met-MCA substrate
